According to paper doi:10.1101/2023.03.06.531428 (bioRxiv, 2023):

B1: untagged, recombinant TIMP-1 (natural protein)
chain: not shown
B2: ADAMTS-7-FLAG (enzyme)
chain: APGPAPGRATEGRAALDIVHPVRVDAGGSFLSYELWPRALRKRDVSVRRDAPAFYELQYRGRELRFNLTANQHLLAPGFVSETRRRGGLGRAHIRAHTPACHLLGEVQDPELEGGLAAISACDGLKGVFQLSNEDYFIEPLDSAPARPGHAQPHVVYKRQAPERLAQRGDSSAPSTCGVQVYPELESRRERWEQRQQWRRPRLRRLHQRSVSKEKWVETLVVADAKMVEYHGQPQVESYVLTIMNMVAGLFHDPSIGNPIHITIVRLVLLEDEEEDLKITHHADNTLKSFCKWQKSINMKGDAHPLHHDTAILLTRKDLCAAMNRPCETLGLSHVAGMCQPHRSCSINEDTGLPLAFTVAHELGHSFGIQHDGSGNDCEPVGKRPFIMSPQLLYDAAPLTWSRCSRQYITRFLDRGWGLCLDDPPAKDIIDFPSVPPGVLYDVSHQCRLQYGAYSAFCEDMDNVCHTLWCSVGTTCHSKLDAAVDGTRCGENKWCLSGECVPVGFRPEAVDGGWSGWSAWSICSRSCGMGVQSAERQCTQPTPKYKGRYCVGERKRFRLCNLQACPAGRPSFRHVQCSHFDAMLYKGQLHTWVPVVNDVNPCELHCRPANEYFAEKLRDAVVDGTPCYQVRASRDLCINGICKNVGCDFEIDSGAMEDRCGVCHGNGSTCHTVSGTFEEAEGLGYVDVGLIPAGAREIRIQEVAEAANFLALRSEDPEKYFLNGGWTIQWNGDYQVAGTTFTYARRGNWENLTSPGPTKEPVWIQLLFQESNPGVHYEYTIHREAGGHDEVPPPVFSWHYGPWTKCTVTCGRGVQRQNVYCLERQAGPVDEEHCDPLGRPDDQQRKCSEQPCPARWWAGEWQLCSSSCGPGGLSRRAVLCIRSVGLDEQSALEPPACEHLPRPPTETPCNRHVPCPATWAVGNWSQCSVTCGEGTQRRNVLCTNDTGVPCDEAQQPASEVTCSLPLCRWPLGTLGPEGSGSGSSSHELFNEADFIPHHLAPRPSPASSPKPGTMGNAIEEEAPELDLPGPVFVDDFYYDYNFINFHEDLSYGPSEEPDLDLAGTGDRTPPPHSHPAAPSTGSPVPATEPPAAKEEGVLGPWSPSPWPSQAGRSPPPPSEQTPGNPLINFLPEEDTPIGAPDLGLPSLSWPRVSTDGLQTPATPESQNDFPVGKDSQSQLPPPWRDRTNEVFKDDEEPKGRGAPHLPPRPSSTLPPLSPVGSTHSSPSPDVAELWTGGTVAWEPALEGGLGPVDSELWPTVGVASLLPPPIAPLPEMKVRDSSLEPGTPSFPTPGPGSWDLQTVAVWGTFLPTTLTGLGHMPEPALNPGPKGQPESLSPEVPLSSRLLSTPAWDSPANSHRVPETQPLAPSLAEAGPPADPLVVRNAGWQAGNWSECSTTCGLGAVWRPVRCSSGRDEDCAPAGRPQPARRCHLRPCATWHSGNWSKCSRSCGGGSSVRDVQCVDTRDLRPLRPFHCQPGPAKPPAHRPCGAQPCLSWYTSSWRECSEACGGGEQQRLVTCPEPGLCEEALRPNTTRPCNTHPCTQWVVGPWGQCSGPCGGGVQRRLVKCVNTQTGLPEEDSDQCGHEAWPESSRPCGTEDCEPVEPPRCERDRLSFGFCETLRLLGRCQLPTIRTQCCRSCSPPSHGAPSRGHQRVARR

Assays:
Experiment in all cases: AlphaScreen or HTRF
[1] = target: B2
[2] = target: T1, TIMP-1-HA (human, UniProt P01033 24-207)
T1 sequence (P01033 24-207): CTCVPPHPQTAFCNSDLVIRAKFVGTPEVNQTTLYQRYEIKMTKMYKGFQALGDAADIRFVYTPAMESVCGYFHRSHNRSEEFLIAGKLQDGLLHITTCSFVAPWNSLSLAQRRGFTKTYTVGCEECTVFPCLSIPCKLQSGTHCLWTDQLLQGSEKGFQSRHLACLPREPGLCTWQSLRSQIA

[3] = target: T1, TIMP-1-HA; remark: listed apart in the source

Row | Binder | FRET ratio (665/620) of ADAMTS-7-FLAG and TIMP-1-HA with 400 ng untagged TIMP-1 [1] | FRET ratio (665/620) of ADAMTS-7-FLAG and TIMP-1-HA with 800 ng untagged TIMP-1 [1] | FRET ratio (665/620) with 0 ng untagged TIMP-1 [2] | FRET ratio (665/620) [3]
1 | B1 | 4420 665/620 ratio | 3570 665/620 ratio |  | 
2 | B2 |  |  | 4950 665/620 ratio | 5480 665/620 ratio
